We go through two molecules from patent US20200270318A1.

No end group written: not given here.

The target in the assay is human PAC1 receptor with 3 hemagglutinin (HA) tags, expressed in Chinese Hamster Ovary (CHO) cells (human), P41586. As to the kind of experiment: cell-based or functional assay.
Chain of human PAC1 receptor with 3 hemagglutinin (HA) tags, expressed in Chinese Hamster Ovary (CHO) cells (human), P41586 (P41586 21-468): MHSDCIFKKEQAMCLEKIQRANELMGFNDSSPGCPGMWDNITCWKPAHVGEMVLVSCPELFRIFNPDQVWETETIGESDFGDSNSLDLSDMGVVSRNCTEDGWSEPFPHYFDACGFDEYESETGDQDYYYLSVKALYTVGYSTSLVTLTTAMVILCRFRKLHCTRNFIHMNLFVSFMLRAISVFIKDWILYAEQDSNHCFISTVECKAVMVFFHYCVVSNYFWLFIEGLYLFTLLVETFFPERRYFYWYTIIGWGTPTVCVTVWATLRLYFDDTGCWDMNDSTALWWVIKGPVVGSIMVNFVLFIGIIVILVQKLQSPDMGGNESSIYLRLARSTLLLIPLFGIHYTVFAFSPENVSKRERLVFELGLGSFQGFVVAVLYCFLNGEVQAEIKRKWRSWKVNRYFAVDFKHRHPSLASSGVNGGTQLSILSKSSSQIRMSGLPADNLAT

B1: PACAP6-38 (peptide)
peptide: FTDSYSRYRKQMAVKKYLAAVLGKRYKQRVKNY-NH2
As to B1, the IC50 (nM), antagonist mode (variable concentration) versus 5 nM PACAP1-27, calcium flux (FLIPR), PAC1-CHO cells was more than 333 nM; the IMax (%), antagonist mode (variable concentration) versus 5 nM PACAP1-27; ( )=% inhibition at highest concentration was determined as 78.8%; the pA2 (nM), antagonist mode (fixed concentration), Gaddum/Schild EC50 shift of PACAP1-27 curves, calcium flux (FLIPR), PAC1-CHO cells was found to be 201 nM.

B2: PACAP1-27 (peptide)
peptide: HSDGIFTDSYSRYRKQMAVKKYLAAVL-NH2
Turning to B2, the EMax (%), calcium flux (FLIPR), agonist mode, PAC1-CHO cells came out at 100%.
